# In PMC3242763:
# B1: Natural full-length protein C inhibitor from human blood plasma (natural protein)
# chain: EMKKRVEDLHVGATVAPSSRRDFTFDLYRALASAAPSQSIFFSPVSISMSLAMLSLGAGSSTKMQILEGLGLNLQKSSEKELHRGFQQLLQELNQPRDGFQLSLGNALFTDLVVDLQDTFVSAMKTLYLADTFPTNFRDSAGAMKQINDYVAKQTKGKIVDLLKNLDSNAVVIMVNYIFFKAKWETSFNHKGTQEQDFYVTSETVVRVPMMSREDQYHYLLDRNLSCRVVGVPYQGNATALFILPSEGKMQQVENGLSEKTLRKWLKMFKKRQLELYLPKFSIEGSYQLEKVLPSLGISNVFTSHADLSGISNHSNIQVSEMVHKAVVEVDESGTRAAAATGTIFTFRSARLNSQRLVFNRPFLMFIVDNNILFLGKVNRP
# modifications: N-glycans at Asn-230, Asn-243 and Asn-319
# B2: Neuraminic acid free full-length protein C inhibitor from human blood plasma (natural protein)
# chain: B1 chain
# modifications: N-glycans at Asn-230, Asn-243 and Asn-319, sialic acids removed with neuraminidase
# B3: PNGase F-treated full-length protein C inhibitor from human blood plasma (natural protein)
# chain: B1 chain
# modifications: N-glycans removed with PNGase F
# Molecular target: Prostate specific antigen used in the inhibition kinetics (human) (UniProt P07288)
# Sequence of UniProt P07288 (P07288 25-261): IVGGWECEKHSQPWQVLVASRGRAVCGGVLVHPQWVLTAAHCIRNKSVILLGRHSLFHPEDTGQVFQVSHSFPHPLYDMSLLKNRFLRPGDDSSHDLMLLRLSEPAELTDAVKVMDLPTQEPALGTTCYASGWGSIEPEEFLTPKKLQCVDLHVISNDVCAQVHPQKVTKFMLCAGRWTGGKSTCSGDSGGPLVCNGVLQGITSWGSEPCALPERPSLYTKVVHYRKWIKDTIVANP
row,Molecule,"second-order rate constant for PSA inhibition (discontinuous assay of residual PSA activity on a chromogenic substrate, 350 nM PSA, 10-fold excess of PCI, 25°C, pH 7.4)"
1,"Neuraminic acid free, NH2-terminally cleaved protein C inhibitor from human blood plasma (natural protein)",5.8 M^−1s^−1
2,PNGase F-treated protein C inhibitor from human blood plasma lacking the six NH2-terminal amino acids (natural protein),29 M^−1s^−1
3,Protein C inhibitor from human blood plasma lacking the six NH2-terminal amino acids (natural protein),4.1 M^−1s^−1
4,B1,4.3 M^−1s^−1
5,B2,5.2 M^−1s^−1
6,B3,4.8 M^−1s^−1
